From article PMC6351176 (Molecular microbiology, 2018)

B1: purified DnaD winged helix domain, wild type (B. subtilis, amino acids 1-128) (domain or fragment, UniProt P39787 1-128, looked up)
chain: MKKQQFIDMQEQGTSTIPNLLLTHYKQLGLNETELILLLKIKMHLEKGSYFPTPNQLQEGMSISVEECTNRLRMFIQKGFLFIEECEDQNGIKFEKYSLQPLWGKLYEYIQLAQNQTQERKAEGEQKS
B2: purified DnaD winged helix domain I83A (B. subtilis, amino acids 1-128) (domain or fragment, UniProt P39787 1-128, looked up)
chain: MKKQQFIDMQEQGTSTIPNLLLTHYKQLGLNETELILLLKIKMHLEKGSYFPTPNQLQEGMSISVEECTNRLRMFIQKGFLFAEECEDQNGIKFEKYSLQPLWGKLYEYIQLAQNQTQERKAEGEQKS
B3: purified DnaD winged helix domain F51A (B. subtilis, amino acids 1-128) (domain or fragment, UniProt P39787 1-128, looked up)
chain: MKKQQFIDMQEQGTSTIPNLLLTHYKQLGLNETELILLLKIKMHLEKGSYAPTPNQLQEGMSISVEECTNRLRMFIQKGFLFIEECEDQNGIKFEKYSLQPLWGKLYEYIQLAQNQTQERKAEGEQKS
B4: purified DnaA domain I, wild type (B. subtilis, amino acids 1-82) (domain or fragment, UniProt P05648 1-82, looked up)
chain: MENILDLWNQALAQIEKKLSKPSFETWMKSTKAHSLQGDTLTITAPNEFARDWLESRYLHLIADTIYELTGEELSIKFVIPQ

How the values were obtained:
cross-linking = target: the molecule itself; assay: cross-linking
[1] = target: B1; assay: cross-linking

Row | Binder | stoichiometry N (cross-linking) | further results
1 | B1 | – | binding result (cross-linking): binds
2 | B2 | 4 | –
3 | B3 | 4 | –
4 | B4 | – | binding result [1]: binds
